Values of other authors as cited in article PMC3433420.
Read-outs that look alike come from different tables or passages of the source.

Columns and labels:
Conditions in all cases: cited from earlier work
FGR (Homo sapiens) = FGR (Homo sapiens) (UniProt P09769)
SHC2-PTB (Homo sapiens) = SHC2-PTB (Homo sapiens) (UniProt P98077)
PIK3R2-N (Homo sapiens) = PIK3R2-N (Homo sapiens) (UniProt O00459)
RASA1-NC (Homo sapiens) [1] = molecular target: RASA1-NC (Homo sapiens) (UniProt P20936)
YES1 (Homo sapiens) = YES1 (Homo sapiens) (UniProt P07947)
PIK3R3-NC (Homo sapiens) [2] = molecular target: PIK3R3-NC (Homo sapiens) (UniProt Q92569)
PIK3R2-NC (Homo sapiens) = PIK3R2-NC (Homo sapiens) (UniProt O00459)
SH2D3C (Homo sapiens) = SH2D3C (Homo sapiens) (UniProt Q8N5H7)
GRB10 (Homo sapiens) = GRB10 (Homo sapiens) (UniProt Q13322)
ITK (Homo sapiens) = ITK (Homo sapiens) (UniProt Q08881)
SYK-C (Homo sapiens) = SYK-C (Homo sapiens) (UniProt P43405)
SUPT6H (Homo sapiens) = SUPT6H (Homo sapiens) (UniProt Q7KZ85)
PIK3R1-NC (Homo sapiens) = PIK3R1-NC (Homo sapiens) (UniProt P27986)
SHB (Homo sapiens) = SHB (Homo sapiens) (UniProt Q15464)
SH2B3 (Homo sapiens) = SH2B3 (Homo sapiens) (UniProt Q9UQQ2)
PIK3R1-N (Homo sapiens) = PIK3R1-N (Homo sapiens) (UniProt P27986)
BLK (Homo sapiens) = BLK (Homo sapiens) (UniProt P51451)
SLA (Homo sapiens) [3] = molecular target: SLA (Homo sapiens) (UniProt Q13239)
CRK (Homo sapiens) = CRK (Homo sapiens) (UniProt P46108)
NCK2 (Homo sapiens) [4] = molecular target: NCK2 (Homo sapiens) (UniProt O43639)
PLCG2-N (Homo sapiens) = PLCG2-N (Homo sapiens) (UniProt P16885)
SHC1-PTB (Homo sapiens) [5] = molecular target: SHC1-PTB (Homo sapiens) (UniProt P29353)
PLCG2-NC (Homo sapiens) = PLCG2-NC (Homo sapiens) (UniProt P16885)
VAV3 (Homo sapiens) = VAV3 (Homo sapiens) (UniProt Q9UKW4)
BCAR3 (Homo sapiens) = BCAR3 (Homo sapiens) (UniProt O75815)
LYN (Homo sapiens) = LYN (Homo sapiens) (UniProt P07948)
SYK-NC (Homo sapiens) [6] = molecular target: SYK-NC (Homo sapiens) (UniProt P43405)
GRB7 (Homo sapiens) [7] = molecular target: GRB7 (Homo sapiens) (UniProt Q14451)
SRC (Homo sapiens) = SRC (Homo sapiens) (UniProt P12931)
TNS3 (Homo sapiens) = TNS3 (Homo sapiens) (UniProt Q68CZ2)
RASA1-N (Homo sapiens) [8] = molecular target: RASA1-N (Homo sapiens) (UniProt P20936)
VAV2 (Homo sapiens) [9] = molecular target: VAV2 (Homo sapiens) (UniProt P52735)
TNS4 (Homo sapiens) [10] = molecular target: TNS4 (Homo sapiens) (UniProt Q8IZW8)
SH2B (Homo sapiens) = SH2B (Homo sapiens) (UniProt Q9NRF2)
GRB14 (Homo sapiens) = GRB14 (Homo sapiens) (UniProt Q14449)
ABL2 (Homo sapiens) [11] = molecular target: ABL2 (Homo sapiens) (UniProt P42684)
ABL2 (Homo sapiens) [12] = molecular target: ABL2 (Homo sapiens) (UniProt P42684); remark: listed apart in the source
TNS4 (Homo sapiens) [13] = molecular target: TNS4 (Homo sapiens) (UniProt Q8IZW8); remark: listed apart in the source
TENC1 (Homo sapiens) = TENC1 (Homo sapiens) (UniProt Q63HR2)
NCK2 (Homo sapiens) [14] = molecular target: NCK2 (Homo sapiens) (UniProt O43639); remark: listed apart in the source
HSH2D (Homo sapiens) = HSH2D (Homo sapiens) (UniProt Q96JZ2)
SYK-NC (Homo sapiens) [15] = molecular target: SYK-NC (Homo sapiens) (UniProt P43405); remark: listed apart in the source
MATK (Homo sapiens) = MATK (Homo sapiens) (UniProt P42679)
GRB7 (Homo sapiens) [16] = molecular target: GRB7 (Homo sapiens) (UniProt Q14451); remark: listed apart in the source
RASA1-NC (Homo sapiens) [17] = molecular target: RASA1-NC (Homo sapiens) (UniProt P20936); remark: listed apart in the source
SHC1-PTB (Homo sapiens) [18] = molecular target: SHC1-PTB (Homo sapiens) (UniProt P29353); remark: listed apart in the source
ABL2 (Homo sapiens) [19] = molecular target: ABL2 (Homo sapiens) (UniProt P42684); remark: listed apart in the source
PLCG1-C (Homo sapiens) = PLCG1-C (Homo sapiens) (UniProt P19174)
GRB7 (Homo sapiens) [20] = molecular target: GRB7 (Homo sapiens) (UniProt Q14451); remark: listed apart in the source
VAV2 (Homo sapiens) [21] = molecular target: VAV2 (Homo sapiens) (UniProt P52735); remark: listed apart in the source
SLA (Homo sapiens) [22] = molecular target: SLA (Homo sapiens) (UniProt Q13239); remark: listed apart in the source
SHC1-PTB (Homo sapiens) [23] = molecular target: SHC1-PTB (Homo sapiens) (UniProt P29353); remark: listed apart in the source
PIK3R3-NC (Homo sapiens) [24] = molecular target: PIK3R3-NC (Homo sapiens) (UniProt Q92569); remark: listed apart in the source
SYK-NC (Homo sapiens) [25] = molecular target: SYK-NC (Homo sapiens) (UniProt P43405); remark: listed apart in the source
PLCG1-NC (Homo sapiens) = PLCG1-NC (Homo sapiens) (UniProt P19174)
VAV2 (Homo sapiens) [26] = molecular target: VAV2 (Homo sapiens) (UniProt P52735); remark: listed apart in the source
RASA1-N (Homo sapiens) [27] = molecular target: RASA1-N (Homo sapiens) (UniProt P20936); remark: listed apart in the source

Chain of ABL2 (Homo sapiens) (P42684 168-268): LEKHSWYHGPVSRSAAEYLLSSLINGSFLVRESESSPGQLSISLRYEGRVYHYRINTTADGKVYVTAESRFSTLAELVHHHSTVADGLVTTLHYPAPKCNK
Chain of VAV2 (Homo sapiens) (P52735 668-772): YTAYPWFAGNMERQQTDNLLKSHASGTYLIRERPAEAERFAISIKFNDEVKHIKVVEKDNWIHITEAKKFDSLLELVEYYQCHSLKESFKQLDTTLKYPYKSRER
Chain of SHC1-PTB (Homo sapiens) (P29353 483-583): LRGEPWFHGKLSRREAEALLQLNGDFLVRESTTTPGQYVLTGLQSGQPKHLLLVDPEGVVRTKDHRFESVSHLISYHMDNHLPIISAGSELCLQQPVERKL
Chain of GRB7 (Homo sapiens) (Q14451 426-532): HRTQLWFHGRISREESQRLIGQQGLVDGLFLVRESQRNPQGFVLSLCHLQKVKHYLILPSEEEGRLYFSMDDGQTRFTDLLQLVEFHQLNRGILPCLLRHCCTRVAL
Chain of TNS4 (Homo sapiens) (Q8IZW8 444-561): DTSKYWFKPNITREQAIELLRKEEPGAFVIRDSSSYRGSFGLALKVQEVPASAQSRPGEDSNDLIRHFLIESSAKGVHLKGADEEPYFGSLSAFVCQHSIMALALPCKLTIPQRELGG
Chain of NCK2 (Homo sapiens) (O43639 280-380): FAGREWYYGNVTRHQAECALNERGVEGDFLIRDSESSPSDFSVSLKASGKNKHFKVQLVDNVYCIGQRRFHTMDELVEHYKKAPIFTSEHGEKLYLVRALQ
Chain of RASA1-NC (Homo sapiens) (P20936 176-446): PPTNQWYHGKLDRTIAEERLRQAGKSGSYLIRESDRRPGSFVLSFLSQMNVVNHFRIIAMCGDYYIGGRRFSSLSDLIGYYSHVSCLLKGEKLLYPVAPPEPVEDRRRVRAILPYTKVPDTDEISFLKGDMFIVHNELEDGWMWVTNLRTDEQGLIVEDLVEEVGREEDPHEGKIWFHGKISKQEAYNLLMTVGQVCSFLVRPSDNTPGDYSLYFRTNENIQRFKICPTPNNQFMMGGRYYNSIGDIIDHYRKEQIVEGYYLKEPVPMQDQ
Chain of RASA1-N (Homo sapiens) (P20936 176-446): as above
Chain of SLA (Homo sapiens) (Q13239 79-180): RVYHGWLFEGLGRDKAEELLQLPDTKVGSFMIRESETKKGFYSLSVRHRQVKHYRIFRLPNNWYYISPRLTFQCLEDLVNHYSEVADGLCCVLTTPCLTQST
Chain of PIK3R2-NC (Homo sapiens) (O00459 325-721): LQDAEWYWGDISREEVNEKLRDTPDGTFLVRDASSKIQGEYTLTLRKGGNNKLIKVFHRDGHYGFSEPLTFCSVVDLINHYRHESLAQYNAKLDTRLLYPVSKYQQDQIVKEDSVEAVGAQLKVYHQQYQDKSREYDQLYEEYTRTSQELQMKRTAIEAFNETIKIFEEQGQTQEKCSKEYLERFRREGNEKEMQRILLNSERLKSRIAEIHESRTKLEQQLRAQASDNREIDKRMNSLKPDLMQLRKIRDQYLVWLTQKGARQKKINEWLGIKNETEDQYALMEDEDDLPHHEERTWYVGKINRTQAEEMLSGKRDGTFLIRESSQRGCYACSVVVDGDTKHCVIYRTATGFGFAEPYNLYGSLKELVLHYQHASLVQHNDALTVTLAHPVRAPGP
Chain of PIK3R2-N (Homo sapiens) (O00459 325-721): as above
Chain of LYN (Homo sapiens) (P07948 124-231): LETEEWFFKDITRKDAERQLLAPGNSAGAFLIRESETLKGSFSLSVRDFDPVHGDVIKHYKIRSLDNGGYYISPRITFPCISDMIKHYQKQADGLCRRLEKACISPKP
Chain of PLCG1-C (Homo sapiens) (P19174 545-761): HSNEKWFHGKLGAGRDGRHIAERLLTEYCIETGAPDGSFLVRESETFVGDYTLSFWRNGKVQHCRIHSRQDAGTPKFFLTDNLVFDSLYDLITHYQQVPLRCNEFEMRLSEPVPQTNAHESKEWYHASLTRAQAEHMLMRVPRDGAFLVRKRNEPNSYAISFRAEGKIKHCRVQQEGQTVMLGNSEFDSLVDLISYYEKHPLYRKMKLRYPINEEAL
Chain of PLCG1-NC (Homo sapiens) (P19174 545-761): as above
Chain of PIK3R1-N (Homo sapiens) (P27986 328-723): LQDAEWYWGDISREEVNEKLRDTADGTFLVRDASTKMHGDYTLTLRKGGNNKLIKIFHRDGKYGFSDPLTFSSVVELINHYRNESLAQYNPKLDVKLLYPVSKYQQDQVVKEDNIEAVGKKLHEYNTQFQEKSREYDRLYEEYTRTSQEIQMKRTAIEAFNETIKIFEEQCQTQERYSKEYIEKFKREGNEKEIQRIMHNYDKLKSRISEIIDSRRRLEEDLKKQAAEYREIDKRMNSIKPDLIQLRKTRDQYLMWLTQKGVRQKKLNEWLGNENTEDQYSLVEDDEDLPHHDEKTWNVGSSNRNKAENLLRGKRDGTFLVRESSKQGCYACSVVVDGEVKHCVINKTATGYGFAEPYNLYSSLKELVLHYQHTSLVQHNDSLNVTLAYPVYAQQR
Chain of PIK3R1-NC (Homo sapiens) (P27986 328-723): as above
Chain of TNS3 (Homo sapiens) (Q68CZ2 1167-1287): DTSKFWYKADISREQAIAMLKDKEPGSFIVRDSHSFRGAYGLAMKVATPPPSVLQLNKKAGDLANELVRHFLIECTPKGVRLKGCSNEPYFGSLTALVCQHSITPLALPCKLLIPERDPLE
Chain of BLK (Homo sapiens) (P51451 119-225): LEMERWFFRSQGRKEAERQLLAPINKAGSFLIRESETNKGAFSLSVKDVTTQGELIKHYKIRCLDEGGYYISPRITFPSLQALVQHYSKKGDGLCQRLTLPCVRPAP
Chain of VAV3 (Homo sapiens) (Q9UKW4 667-771): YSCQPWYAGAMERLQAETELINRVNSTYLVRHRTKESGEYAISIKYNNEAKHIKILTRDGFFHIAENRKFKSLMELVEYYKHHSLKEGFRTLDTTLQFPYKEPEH
Chain of TENC1 (Homo sapiens) (Q63HR2 1135-1252): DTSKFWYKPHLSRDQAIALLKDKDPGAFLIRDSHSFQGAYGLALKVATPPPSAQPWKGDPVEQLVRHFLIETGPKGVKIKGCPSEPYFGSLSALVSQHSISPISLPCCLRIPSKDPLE
Chain of CRK (Homo sapiens) (P46108 8-123): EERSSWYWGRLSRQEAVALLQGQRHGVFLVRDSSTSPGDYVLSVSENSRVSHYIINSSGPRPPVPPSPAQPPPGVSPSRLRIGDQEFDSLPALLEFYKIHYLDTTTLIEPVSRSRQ
Chain of SHB (Homo sapiens) (Q15464 405-509): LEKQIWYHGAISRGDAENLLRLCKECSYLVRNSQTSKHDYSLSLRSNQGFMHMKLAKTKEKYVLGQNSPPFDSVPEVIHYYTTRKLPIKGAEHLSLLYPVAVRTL
Chain of SH2D3C (Homo sapiens) (Q8N5H7 215-324): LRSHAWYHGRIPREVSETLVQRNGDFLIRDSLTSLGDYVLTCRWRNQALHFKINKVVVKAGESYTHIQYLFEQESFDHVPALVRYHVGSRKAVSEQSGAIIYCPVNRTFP

Substance: …pYQQDFFPKd
- apparent Kd (screen) (FGR (Homo sapiens)): 546 nM
- apparent Kd (screen) (SHC2-PTB (Homo sapiens)): 1310 nM
- apparent Kd (screen) (PIK3R2-N (Homo sapiens)): 390 nM
- apparent Kd (screen) (RASA1-NC (Homo sapiens) [1]): 1170 nM
- apparent Kd (screen) (YES1 (Homo sapiens)): 98 nM
- apparent Kd (screen) (PIK3R3-NC (Homo sapiens) [2]): 850 nM
- apparent Kd (screen) (PIK3R2-NC (Homo sapiens)): 322 nM
- apparent Kd (screen) (SH2D3C (Homo sapiens)): 1910 nM
- apparent Kd (screen) (GRB10 (Homo sapiens)): 1290 nM
- apparent Kd (screen) (ITK (Homo sapiens)): 1410 nM
- apparent Kd (screen) (SYK-C (Homo sapiens)): 869 nM
- apparent Kd (screen) (SUPT6H (Homo sapiens)): 1030 nM
- apparent Kd (screen) (PIK3R1-NC (Homo sapiens)): 547 nM
- apparent Kd (screen) (SHB (Homo sapiens)): 1790 nM
- apparent Kd (screen) (SH2B3 (Homo sapiens)): 1600 nM
- apparent Kd (screen) (PIK3R1-N (Homo sapiens)): 404 nM
- apparent Kd (screen) (BLK (Homo sapiens)): 751 nM
- apparent Kd (screen) (SLA (Homo sapiens) [3]): 2000 nM
- apparent Kd (screen) (CRK (Homo sapiens)): 408 nM
- apparent Kd (screen) (NCK2 (Homo sapiens) [4]): 380 nM
- apparent Kd (screen) (PLCG2-N (Homo sapiens)): 841 nM
- apparent Kd (screen) (SHC1-PTB (Homo sapiens) [5]): 40 nM
- apparent Kd (screen) (PLCG2-NC (Homo sapiens)): 674 nM
- apparent Kd (screen) (VAV3 (Homo sapiens)): 2000 nM
- apparent Kd (screen) (BCAR3 (Homo sapiens)): 300 nM
- apparent Kd (screen) (LYN (Homo sapiens)): 1590 nM
- apparent Kd (screen) (SYK-NC (Homo sapiens) [6]): 1280 nM
- apparent Kd (screen) (GRB7 (Homo sapiens) [7]): 2000 nM
- apparent Kd (screen) (SRC (Homo sapiens)): 466 nM
- apparent Kd (screen) (TNS3 (Homo sapiens)): 736 nM
- apparent Kd (screen) (RASA1-N (Homo sapiens) [8]): 1140 nM
- apparent Kd (screen) (VAV2 (Homo sapiens) [9]): 216 nM
- apparent Kd (screen) (TNS4 (Homo sapiens) [10]): 334 nM
- apparent Kd (screen) (SH2B (Homo sapiens)): 1820 nM
- apparent Kd (screen) (GRB14 (Homo sapiens)): 1250 nM
- apparent Kd (screen) (ABL2 (Homo sapiens) [11]): 490 nM

Substance: …pYWHSRLFP
- apparent Kd (screen) (ABL2 (Homo sapiens) [12]): 604 nM
- apparent Kd (screen) (TNS4 (Homo sapiens) [13]): 850 nM
- apparent Kd (screen) (TENC1 (Homo sapiens)): 1250 nM
- apparent Kd (screen) (NCK2 (Homo sapiens) [14]): 1900 nM
- apparent Kd (screen) (HSH2D (Homo sapiens)): 1700 nM
- apparent Kd (screen) (SYK-NC (Homo sapiens) [15]): 1980 nM
- apparent Kd (screen) (MATK (Homo sapiens)): 1870 nM
- apparent Kd (screen) (GRB7 (Homo sapiens) [16]): 1690 nM
- apparent Kd (screen) (RASA1-NC (Homo sapiens) [17]): 1920 nM
- apparent Kd (screen) (SHC1-PTB (Homo sapiens) [18]): 217 nM

Substance: …pYLQEYSTKd
- apparent Kd (screen) (ABL2 (Homo sapiens) [19]): 883 nM
- apparent Kd (screen) (PLCG1-C (Homo sapiens)): 2000 nM
- apparent Kd (screen) (GRB7 (Homo sapiens) [20]): 2000 nM
- apparent Kd (screen) (VAV2 (Homo sapiens) [21]): 769 nM
- apparent Kd (screen) (SLA (Homo sapiens) [22]): 2000 nM
- apparent Kd (screen) (SHC1-PTB (Homo sapiens) [23]): 2000 nM
- apparent Kd (screen) (PIK3R3-NC (Homo sapiens) [24]): 2000 nM
- apparent Kd (screen) (SYK-NC (Homo sapiens) [25]): 2000 nM
- apparent Kd (screen) (PLCG1-NC (Homo sapiens)): 2000 nM
- apparent Kd (screen) (VAV2 (Homo sapiens) [26]): 2000 nM
- apparent Kd (screen) (RASA1-N (Homo sapiens) [27]): 2000 nM
